Tested on: K4 kissing-loop RNA reporter
Experiment: apparent KD of K4 kissing-loop reporter; higher = weaker reporter binding
Conditions: Eterna round: R107; input ligand: FMN 200 uM
Procedure: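 RNA-MaP round R107: designed RNA switches with theophylline, tryptophan, arginine or FMN aptamers are transcribed on-chip within common flanks. They are titrated with a labelled K4 kissing-loop RNA reporter in RNA-MaP buffer (100 mM Tris pH 7.5, 80 mM KCl, 4 mM MgCl2), without ligand or with the indicated ligand. Median apparent KD per design.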
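Further: bound reporter read as fluorescence of individual clusters on recovered sequencing chips by microscopy, with normalized cluster intensities fitted with a binding model.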

Sequence	apparent KD of K4 kissing-loop reporter [nM]
GCCGUAGAUUGAAGGAGCGCCAUCUUACCAAGAGUGAUGUUCUUUGGUACCAUGUACAGCUGGCAGGUAGGUCGCAAUCUACGGC	192
UGAUAGGACAGAAGGAGCGGAAGUGAUGUUUCCAAAAGAUAUGAUCGACAAAGUCGAUUUUUCCAGGUAGGUCGCUGUCCUAUCU [KL-XARG-B19]	60.5
UACUAUAGUGAUGUUAUAGAUAAACCAGAUACCAGUGUAACAUAACACCCUUGGCAGCUGAUGAGGGAAGAUAUCAAAAGAUAUC [AstroSTH-A#9newdesignED4.70]	218
CGAGCUUCCUGGGAUACCAGUCGGAGUCUCAGAGCUCGGAGUGAUGUUCUGGGAUGUUUCGGCCCUUGGCAGCUCUGGGACUCCU [#2 Exclusion - Theophylline B Attempt #20 (HarryS)]	1000
GGUAGCAUGGCGGCCGCCACUACCUAGUGAUGUUAGGCUGUGGACAUAGGAGCAAGAUAAAUAUGUAGGACCGGGCCAUGCUACC	129
AAACGUUGGUCGGAUACCAGCUUGAUCGGAAACGAUCUGCUGGAGUGAUGUUCCAAGUAAAGCCCUUGGCAGCCGACCGACGAAA [MAT - Same State Theophlline B - Mod of Eli - D18]	148
AAGAGAGCGAGAAGGAGCGAGAAAGCUAGUGCAUAUGCACUAGCAAAGCAGUGAUGUUGCACUCAGGUAGGUCGCUCGCUCUCAA [AK1.2 SS Arginine B]	384
ACACUAUCGUCAUAGACGGUAGUGAAAGCUGAGGAUAUGAGUGAUGUUAGAAGGUAGCAAGACUGUAUCGAAUAGAUACAGUCAA [FmnA 5 #K4BetweenAptamer #OpenEnded]	227
UGUCAUUGGUCGGCCGCCACUACAAGGUCAAAGACCAAAGAGUGAUGUUCUUAGACGAAAGUCAGUAGGACCGGGACCGAUGACU [TrypBS 8 #SwitchBubble #K4Middle]	1050
CCGGGCGGCUGAAGGAGCGGGCGGGCCCGAGUGAUGUUCGGGUGGGCCGUGAGGCCCGGAGCCCAGGUAGGUCGCGGUUCCGUCC [#2 Same State - Arginine B Attempt #18 (HarryS)]	201
UGUGGAGAAUAUGAUACCAGCAGUGAGAGAGAGGAAGUAUAGUGAUGUUAUAUGAGAGAAUGCCCUUGGCAGCAUAUGUAGAAGG [SSTheophylB.F]	133
UAAGAAUAAGUAGCAGUGAUGUUGCUACUACGAGGACCGGUACGGCCGCCACUCGAGCCGUACCAUAACAUCACUGAGGUACGAA [(H1)-(H2)-(Trp1)-(Trp2)-(T)'-(H)'-(T)'']	231
UCCUAGGCUCGAAAGAGCCUAGGAUAUACUCAGGAUAUCCGGAAACGGAGAAGGGAGUAACUAGUGAUGUUAGGGAUUCCCUAUU	260
ACGUCACGUAUACUGGUGGUUUCGAUCGAUACCAGUAGCGAGAGUUACCCUUGGCAGCGACAUGAGUGAUGUUCAUGUAUGAAGA [KL-XTheo-A1 #analogue]	100
GGAUCCACCAGUGAUGUUGGAGAAAACUCGAAGGAUAUGACGAAAGUCAGAAGGUCGUAGACUGGACAAAGUCCGGUCGGAUCCA [FmnA 19 G30+C56]	500
GCAGUCAAUCAACCACGAAAGUGGAUGGAUACCAGCCCGAAACCGGGCCCUUGGCAGCCAGUGAUGUUGGAAGACUGCUUUAAAA [#SwitchBubble 15 #K4Late]	974
GGUUUAUAGGAGGAUACCAGUACGAAUAAAGUACAUUAAUAGUAGAGUGAUGUUCUAAAGUACCCUUGGCAGCUUAGAGUAAGUU [#18 K4 Theophylline B Exclusion]	105

Same assay, conditions: Eterna round: R107; input ligand: arginine 13.2 mM

Sequence	apparent KD of K4 kissing-loop reporter [nM]
GCCGUAGAUUGAAGGAGCGCCAUCUUACCAAGAGUGAUGUUCUUUGGUACCAUGUACAGCUGGCAGGUAGGUCGCAAUCUACGGC	151
UGAUAGGACAGAAGGAGCGGAAGUGAUGUUUCCAAAAGAUAUGAUCGACAAAGUCGAUUUUUCCAGGUAGGUCGCUGUCCUAUCU [KL-XARG-B19]	84.9
UACUAUAGUGAUGUUAUAGAUAAACCAGAUACCAGUGUAACAUAACACCCUUGGCAGCUGAUGAGGGAAGAUAUCAAAAGAUAUC [AstroSTH-A#9newdesignED4.70]	218
CGAGCUUCCUGGGAUACCAGUCGGAGUCUCAGAGCUCGGAGUGAUGUUCUGGGAUGUUUCGGCCCUUGGCAGCUCUGGGACUCCU [#2 Exclusion - Theophylline B Attempt #20 (HarryS)]	576
GGUAGCAUGGCGGCCGCCACUACCUAGUGAUGUUAGGCUGUGGACAUAGGAGCAAGAUAAAUAUGUAGGACCGGGCCAUGCUACC	88.8
AAACGUUGGUCGGAUACCAGCUUGAUCGGAAACGAUCUGCUGGAGUGAUGUUCCAAGUAAAGCCCUUGGCAGCCGACCGACGAAA [MAT - Same State Theophlline B - Mod of Eli - D18]	65.1
AAGAGAGCGAGAAGGAGCGAGAAAGCUAGUGCAUAUGCACUAGCAAAGCAGUGAUGUUGCACUCAGGUAGGUCGCUCGCUCUCAA [AK1.2 SS Arginine B]	292
ACACUAUCGUCAUAGACGGUAGUGAAAGCUGAGGAUAUGAGUGAUGUUAGAAGGUAGCAAGACUGUAUCGAAUAGAUACAGUCAA [FmnA 5 #K4BetweenAptamer #OpenEnded]	111
UGUCAUUGGUCGGCCGCCACUACAAGGUCAAAGACCAAAGAGUGAUGUUCUUAGACGAAAGUCAGUAGGACCGGGACCGAUGACU [TrypBS 8 #SwitchBubble #K4Middle]	707
CCGGGCGGCUGAAGGAGCGGGCGGGCCCGAGUGAUGUUCGGGUGGGCCGUGAGGCCCGGAGCCCAGGUAGGUCGCGGUUCCGUCC [#2 Same State - Arginine B Attempt #18 (HarryS)]	139
UGUGGAGAAUAUGAUACCAGCAGUGAGAGAGAGGAAGUAUAGUGAUGUUAUAUGAGAGAAUGCCCUUGGCAGCAUAUGUAGAAGG [SSTheophylB.F]	154
UAAGAAUAAGUAGCAGUGAUGUUGCUACUACGAGGACCGGUACGGCCGCCACUCGAGCCGUACCAUAACAUCACUGAGGUACGAA [(H1)-(H2)-(Trp1)-(Trp2)-(T)'-(H)'-(T)'']	175
UCCUAGGCUCGAAAGAGCCUAGGAUAUACUCAGGAUAUCCGGAAACGGAGAAGGGAGUAACUAGUGAUGUUAGGGAUUCCCUAUU	96
ACGUCACGUAUACUGGUGGUUUCGAUCGAUACCAGUAGCGAGAGUUACCCUUGGCAGCGACAUGAGUGAUGUUCAUGUAUGAAGA [KL-XTheo-A1 #analogue]	111
GGAUCCACCAGUGAUGUUGGAGAAAACUCGAAGGAUAUGACGAAAGUCAGAAGGUCGUAGACUGGACAAAGUCCGGUCGGAUCCA [FmnA 19 G30+C56]	541
GCAGUCAAUCAACCACGAAAGUGGAUGGAUACCAGCCCGAAACCGGGCCCUUGGCAGCCAGUGAUGUUGGAAGACUGCUUUAAAA [#SwitchBubble 15 #K4Late]	256
GGUUUAUAGGAGGAUACCAGUACGAAUAAAGUACAUUAAUAGUAGAGUGAUGUUCUAAAGUACCCUUGGCAGCUUAGAGUAAGUU [#18 K4 Theophylline B Exclusion]	212

Same assay, conditions: Eterna round: R107; input ligand: none

Sequence	apparent KD of K4 kissing-loop reporter [nM]
GCCGUAGAUUGAAGGAGCGCCAUCUUACCAAGAGUGAUGUUCUUUGGUACCAUGUACAGCUGGCAGGUAGGUCGCAAUCUACGGC	173
UGAUAGGACAGAAGGAGCGGAAGUGAUGUUUCCAAAAGAUAUGAUCGACAAAGUCGAUUUUUCCAGGUAGGUCGCUGUCCUAUCU [KL-XARG-B19]	66.8
UACUAUAGUGAUGUUAUAGAUAAACCAGAUACCAGUGUAACAUAACACCCUUGGCAGCUGAUGAGGGAAGAUAUCAAAAGAUAUC [AstroSTH-A#9newdesignED4.70]	202
CGAGCUUCCUGGGAUACCAGUCGGAGUCUCAGAGCUCGGAGUGAUGUUCUGGGAUGUUUCGGCCCUUGGCAGCUCUGGGACUCCU [#2 Exclusion - Theophylline B Attempt #20 (HarryS)]	767
GGUAGCAUGGCGGCCGCCACUACCUAGUGAUGUUAGGCUGUGGACAUAGGAGCAAGAUAAAUAUGUAGGACCGGGCCAUGCUACC	103
AAACGUUGGUCGGAUACCAGCUUGAUCGGAAACGAUCUGCUGGAGUGAUGUUCCAAGUAAAGCCCUUGGCAGCCGACCGACGAAA [MAT - Same State Theophlline B - Mod of Eli - D18]	99.4
AAGAGAGCGAGAAGGAGCGAGAAAGCUAGUGCAUAUGCACUAGCAAAGCAGUGAUGUUGCACUCAGGUAGGUCGCUCGCUCUCAA [AK1.2 SS Arginine B]	350
ACACUAUCGUCAUAGACGGUAGUGAAAGCUGAGGAUAUGAGUGAUGUUAGAAGGUAGCAAGACUGUAUCGAAUAGAUACAGUCAA [FmnA 5 #K4BetweenAptamer #OpenEnded]	163
